Test results reported in paper PMC4546627, “Biophysical Characterization of Essential Phosphorylation at the Flexible C-Terminal Region of C-Raf with 14-3-3ζ Protein” (PLoS ONE, 2015).
Entries after “also recorded” stand apart in the source; their conditions may differ. Where a SMILES comes first, the peptide text is derived from it. Where no end group is shown, it is not given here. [ ]: non-standard residue; d: D form. pS = N[C@@H](COP(=O)(O)O)C(=O)O

Legend:
[1] = biological target: C-Raf pS259 peptide (Homo sapiens) (UniProt P04049); conditions: cited from earlier work
[2] = biological target: C-Raf pS233/pS259 peptide (Homo sapiens) (UniProt P04049); conditions: cited from earlier work
[3] = biological target: C-Raf pS233 peptide (Homo sapiens) (UniProt P04049); conditions: cited from earlier work
human 14-3-3ζ protein [4] = biological target: T1, human 14-3-3ζ protein (Homo sapiens, UniProt P63104); assay: Isothermal titration calorimetry (ITC) of peptide binding to 14-3-3ζ
T1 construct: hexa-histidine (His6, from pQE30 vector) (N); made in house; host or cells: E. coli M15
T1 sequence (P63104 1-245): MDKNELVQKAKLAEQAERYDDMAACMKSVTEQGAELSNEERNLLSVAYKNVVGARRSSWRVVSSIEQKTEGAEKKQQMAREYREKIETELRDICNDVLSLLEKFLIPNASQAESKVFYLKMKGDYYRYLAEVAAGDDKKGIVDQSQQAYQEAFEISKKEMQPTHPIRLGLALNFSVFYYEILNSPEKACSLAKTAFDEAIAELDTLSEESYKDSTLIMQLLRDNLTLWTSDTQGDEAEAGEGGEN
Description: Human 14-3-3ζ full length sequence was PCR amplified using pcDNA3 14-3-3ζ as a template with forward primer (5´-[…]-3´) and reverse primer (5´-[…]-3´). The PCR amplified product was digested with BamH1 and Pst1 and cloned into pQE30 vector. This vector contains N-terminal hexa- histidine tag suitable for affinity purification. The cloned fragment was confirmed by automated DNA sequencer, Applied Biosystem 3130×I 96 capillary DNA Analyzer.
E. coli M15 cells were transformed with this construct and grown at 37°C in LB medium containing ampicillin and kanamycin. The cells were grown till 0.6 (O.D.600nm) and the expression of the protein was induced with 0.5 mM IPTG for 3 hours. The cells were harvested and stored at -70°C. The cells were subsequently resuspended in lysis buffer (10 mM NaH2PO4, 100 mM NaCl, pH7.0, 1 mM PMSF (Sigma, St. Louis, MO), 1X Halt Protease inhibitor cocktail (ThermoFisher Scientific, Waltham, MA) and lysed by passing through the French press at 20,000 psi. Cell lysate was centrifuged at 20,000×g for 15 minutes at 4°C. The supernatant was collected and again centrifuged at 100,000×g for 1 hour. Cell homogenate was applied onto TALON affinity resin (Clontech, Mountain View, CA) pre-equilibrated with lysis buffer. Resin was washed with five volumes of lysis buffer containing 20 mM imidazole. Bound protein was eluted with 150 mM imidazole containing lysis buffer. Imidazole was then removed by dialysis; the buffer was exchanged with 10 mM NaH2PO4, 100 mM NaCl, pH 6.1 and the protein was concentrated in sucrose bed. Commercially synthesized and HPLC-purified (> 95%) KH16p and KH16 peptides were purchased from GL Biochem (Shanghai, China) and used as received.
ITC technique was employed to study thermodynamics of KH16p and KH16 peptides interactions with 14-3-3ζ protein with the help of VP-ITC micro-calorimeter in high feedback mode. The peptides were dissolved in the same dialysis buffer of 14-3-3ζ protein (i.e., 10 mM Na2HPO4 buffer containing 100 mM NaCl, pH 6.1). Sample cell with 50 μM 14-3-3ζ protein was titrated against 1 mM peptide in a syringe with 300 rpm stirring speed with an initial delay of 60 sec. The cell temperature was kept at 298 K and 10 μcal/s of reference power as applied to maintain a flat baseline. A total of 17 injections of 1 mM KH16p/KH16 were performed, where the initial injection was of 0.4 μl and the final was 2.0 μl, while the remaining 15 injections were 2.5 μl each. Each injection was over a period of 0.8 sec with a spacing of 150 sec and filter time of 5 sec. An equivalent control experiment to subtract the heat of dilution of the peptides in buffer was performed (i.e., the same concentration of peptide was injected into the buffer solution keeping same experimental parameters). Results obtained were plotted using MicroCal Origin 7.0 software. In order to determine the thermodynamic parameters (i.e., association constant K A and enthalpy of reaction ΔH), the single-site binding model was used. Other thermodynamic parameters such as the free energy of binding (ΔG) and entropy (ΔS) were calculated using Eqs (2) and (3), respectively: ΔG=−RTlnKA (2) ΔG=ΔH−TΔS (3)

human 14-3-3ζ protein [5] = biological target: T1, human 14-3-3ζ protein; assay: STD NMR with 14-3-3ζ; assay type: binding; conditions: 1 mM peptide, 2 μM 14-3-3ζ (500:1), D2O, 10 mM Na2HPO4, 100 mM NaCl, pH 6.1, 288 K
Experimental: Saturation transfer difference (STD) NMR experiments were carried out at 288 K using standard STD pulse sequences, with WATERGATE 3-9-19 water suppression method. Briefly, 1 mM of KH16p/KH16 peptide in 10 mM Na2HPO4 buffer (pH 6.1) with 100 mM NaCl was lyophilized and resuspended in an equal volume of D2O, and 2 μM 14-3-3ζ proteins was added to it. A train of 40 selective Gaussian-shaped pulses (49 ms each) with an interval period of 1 ms was used to saturate protein resonance for a total of 2 sec saturation time. During the STD NMR experiment, on- and off-resonance frequencies were set at -1 ppm and 40 ppm, respectively. Subtraction of off-resonance spectrum from the on-resonance spectra to yield signals appearing due to saturation transfer from protein to ligand was achieved using phase cycling. The one-dimensional STD spectra were acquired with 1024 scans with 16 dummy scans using a sweep width of 12 ppm. An exponential line broadening function of 3 Hz was applied to the spectral data before Fourier transformation. Similar STD experiments were performed on the peptide KH16p or KH16 in the absence of 14-3-3ζ protein as a control.

14-3-3ζ = biological target: T2, 14-3-3ζ (Homo sapiens, UniProt P63104); assay: 31P NMR
T2 chain: T1 sequence (P63104 1-245)

## 14-3-3ζ (from UniProt P63104)
[1]
  Kd: 16.7 µM
[2]
  Kd: 0.346 µM
[3]
  Kd: 171 µM

## CC[C@H](C)[C@H](NC(=O)[C@@H](N)CCCCN)C(=O)N[C@@H](CC(N)=O)C(=O)N[C@@H](CCCNC(=N)N)C(=O)N[C@@H](CO)C(=O)N[C@@H](C)C(=O)N[C@@H](COP(=O)(O)O)C(=O)N[C@@H](CCC(=O)O)C(=O)N1CCC[C@H]1C(=O)N[C@@H](CO)C(=O)N[C@@H](CC(C)C)C(=O)N[C@@H](Cc1c[nH]cn1)C(=O)N[C@@H](CCCNC(=N)N)C(=O)N[C@@H](C)C(=O)N[C@@H](C)C(=O)N[C@@H](Cc1c[nH]cn1)C(=O)O [KH16p] (H-KINRSA[pS]EPSLHRAAH-OH)
Human 14-3-3ζ protein [4]
  Kd: 17.3 µM

## KH16: control peptide KH16 devoid of phosphorylation at S621 (C-Raf 615–630) (KINRSASEPSLHRAAH; UniProt P04049 615-630, looked up, fragment)
Human 14-3-3ζ protein [5]
  STD NMR signals with 14-3-3ζ (in words): did not show any peaks in both the aromatic and the aliphatic regions
Human 14-3-3ζ protein [4]; ITC, 50 μM 14-3-3ζ in cell, 1 mM peptide in syringe, 298 K, 10 mM Na2HPO4, 100 mM NaCl, pH 6.1, single-site binding model
  N (stoichiometry): 1.89 ± 1.45 × 10^4
Human 14-3-3ζ protein [4]; ITC, 298 K, pH 6.1
  T∆S: -411.24 kcal/mol
  binding affinity (in words): did not show any appreciable binding affinity; also recorded: relatively weak and the corresponding KD value is in the millimolar range
Human 14-3-3ζ protein [4]; ITC, 298 K, pH 6.1, calculated from ΔG=ΔH−TΔS
  ∆S: -1.38 × 10^3 cal mol^-1 deg^-1
Human 14-3-3ζ protein [4]; ITC, 298 K, pH 6.1, calculated from ΔG=−RTlnKA
  ∆G: -1.96 kcal/mol

B1: C-Raf KH16p phosphopeptide 615-630 (peptide)
chain: KINRSA[pS]EPSLHRAAH
14-3-3ζ
  Kd: 17.7 µM
